According to the supplement of paper PMC10724198:
± gives the standard deviation of the averaged measurements.

System: Saccharomyces cerevisiae
Assay: protein stability index of tFT-peptide fusion (C-terminal peptide) (PSI (0-1 scale)); higher = more stable (slower turnover)
Settings: genetic background: wild type; temperature: 30 C
Experimental: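 Multiplexed protein stability (MPS) profiling in S. cerevisiae. Random 12-aa peptides (tFT-X12 library) are fused to the C-terminus of a sfGFP-mCherry tandem fluorescent timer, after mCherry and a GGGS linker. Cells are FACS-sorted into 8 mCherry/sfGFP bins and deep-sequenced. The protein stability index (PSI) is the read-weighted bin average, scaled from 0 (unstable) to 1 (stable). Only peptides with >10 reads are reported; cells were grown at 30 °C in SC-His with glucose.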
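Further: PSI is a weighted mean of sequencing reads over stability bins, variants kept only with over 10 reads, mCherry proximal and sfGFP distal, peptide attached via GGGS linker.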

In order of falling protein stability index:
1. IAVSWIRGGRIM  0.849 ± 0.13
2. KIEHEGIKKGGT  0.807 ± 0.14
3. IFIPRFDLPSFP  0.788 ± 0.16
4. KFNNIQNWRLAY  0.787 ± 0.098
5. ICCASALPFDIS  0.784 ± 0.19
6. IHRLPPSLFPLL  0.776 ± 0.12
7. KGEGRERSRSRK  0.768 ± 0.034
8. IFKSLEKKTKRV  0.766 ± 0.0086
9. IFSSFCPASFFL  0.757 ± 0.031
10. IRREETKRKRNL  0.755 ± 0.044
11. KEQNKVHTQNKK  0.755 ± 0.29
12. IVSISCPADWLD  0.754 ± 0.034
13. IESLDRRGAEQI  0.747 ± 0.045
14. KIPEQRISKTKK  0.745 ± 0.011
15. KDIVSEPKVKRE  0.744 ± 0.012
16. IGLFWSGFFYGV  0.743 ± 0.038
17. KGGLLPWGPWNA  0.743 ± 0.064
18. KAKCRNRQDEVI  0.742 ± 0.026
19. KKKKKNKKENAE  0.742 ± 0.086
20. KKKKKKNNSKTT  0.739 ± 0.19
21. IQRIPSGSGRVR  0.736 ± 0.058
22. IIKKKKNKARDI  0.734 ± 0.067
23. ILNNSDRAYTIQ  0.731 ± 0.04
24. IRGGSRLPFYSS  0.731 ± 0.013
25. IFMHPRATLPAR  0.73 ± 0.076
26. IWGLSSLYGCGW  0.728 ± 0.011
27. KARMEKKRKIKL  0.728 ± 0.073
28. KENKKNDRRDII  0.728 ± 0.023
29. ITKELHEGEYLY  0.727 ± 0.0086
30. KAIKNKQKFKEK  0.726 ± 0.012
31. KKKKKKKKEKKK  0.726 ± 0.041
32. KKIQKKKKLIPQ  0.7247 ± 0.0058
33. IIKDITNRGYAW  0.724 ± 0.073
34. KKKEKKIKKTIK  0.724 ± 0.048
35. KGQGPAKTRTRE  0.723 ± 0.031
36. KIKKKRKQKGKQ  0.722 ± 0.046
37. IGVRSPSTHIVN  0.72 ± 0.018
38. ILSGIGNGSGSE  0.72 ± 0.06
39. KDKGEKEKRRTK  0.719 ± 0.077
40. KGQKVAYSRHRA  0.718 ± 0.063
41. KKKKKKEYTKTN  0.718 ± 0.011
42. KKKKKKKTKKRK  0.717 ± 0.029
43. KEYNIKNEREEK  0.716 ± 0.031
44. KINELGYMNLKM  0.716 ± 0.013
45. ITIRGLTGRFRQ  0.713 ± 0.17
46. KIKTIKKHKKKY  0.713 ± 0.056
47. KKKKKQKKKKGT  0.713 ± 0.034
48. KAQKKGRHSKEL  0.712 ± 0.0059
49. IIPQSCTSGGHT  0.711 ± 0.061
50. IKKKNQKHKKKN  0.7114 ± 0.0029
51. IADGSEIVRSLI  0.71 ± 0.038
52. KERLLTLHSHSH  0.71 ± 0.037
53. ITMYAPEVDKRR  0.709 ± 0.017
54. IQAGHLYPESLV  0.708 ± 0.056
55. KKKKKNTIKKNK  0.708 ± 0.0083
56. ILSPLRHPEPTR  0.70614 ± 9.6e-05
57. IRSLRWVRRESV  0.706 ± 0.1
58. KEHTNKDEMPKE  0.705 ± 0.074
59. ISLCSVARLGFA  0.704 ± 0.021
60. ILSASARPPRPA  0.701 ± 0.011
61. KEKKNKKKKQNR  0.701 ± 0.021
62. IKKRTSNRENKD  0.7 ± 0.025
63. IKTVSDFLIVKL  0.6998 ± 0.0055
64. KETTEKTEIRII  0.7 ± 0.012
65. IGGRRGVTGIFV  0.699 ± 0.064
66. IKNENKKKKNKK  0.699 ± 0.024
67. ILCFSLESPRYH  0.6991 ± 0.0022
68. ILWVSPFFFSLD  0.699 ± 0.064
69. IRLQKEGIKKIL  0.699 ± 0.019
70. KKKGSKITKIKD  0.699 ± 0.064
71. KGCRYVGARHEG  0.698 ± 0.017
72. IGLRCPPPKPYA  0.696 ± 0.035
73. IYTRVWPQSWLP  0.696 ± 0.038
74. KDVGKVATRRSK  0.696 ± 0.028
75. KKKKKKKTKKQK  0.696 ± 0.024
76. IRETTYSRPFQL  0.695 ± 0.05
77. IGLRVLSNSYEV  0.694 ± 0.031
78. KIKNNKNKKKKS  0.693 ± 0.01
79. IGTGLVLFSPCY  0.69 ± 0.022
80. KIMIRKIEIKKE  0.69 ± 0.049
81. KKETKLKKTEVK  0.69 ± 0.095
82. KKKEKQRQSKRR  0.689 ± 0.026
83. IGIIFTKCGGRT  0.688 ± 0.037
84. IIRKYKARKKNK  0.688 ± 0.041
85. KDKRKAETKSRN  0.688 ± 0.037
86. KGREKTKKKGTK  0.688 ± 0.011
87. ISILPDSIGQGA  0.687 ± 0.055
88. IKTKKKKKKKRD  0.686 ± 0.0099
89. IRRTNRKETRKE  0.686 ± 0.042
90. KEGSGQRRARRA  0.686 ± 0.066
91. IKIKKKKKRNKR  0.685 ± 0.057
92. KCLCSKSGSWPC  0.685 ± 0.0078
93. KIKERKNVKGKK  0.685 ± 0.024
94. KKKKKETKNAQQ  0.685 ± 0.0077
95. KGTQINNRCKLK  0.684 ± 0.078
96. IRPSNLRPPSYL  0.682 ± 0.022
97. KIKINKRIQNKK  0.682 ± 0.036
98. IRRRQKYPKKKS  0.6803 ± 0.0059
99. IVEKAVAKGIKE  0.6767 ± 0.005
100. KGHGTTCVGRQV  0.677 ± 0.04
101. KGKRSRTRKPEE  0.677 ± 0.013
102. IGTKKVINDKLL  0.675 ± 0.028
103. IQDVGLKRLARV  0.675 ± 0.061
104. IRKDRGYETGKR  0.6746 ± 0.0043
105. IILHLTRPGLAL  0.673 ± 0.013
106. ISSRSMGGCWHA  0.673 ± 0.023
107. IPPPLPPRAPLP  0.672 ± 0.057
108. IAEWVRLIVGEG  0.671 ± 0.015
109. ITEYKIKLKNKE  0.671 ± 0.023
110. KGGSVNRLSQVR  0.6713 ± 0.00097
111. KKIQKKTPAIDG  0.671 ± 0.1
112. KEARKREHKQTN  0.67 ± 0.094
113. KHRIEYQEKNTF  0.67 ± 0.019
114. KKAKEETSTPDC  0.67 ± 0.034
115. IGRVFGMENIKM  0.669 ± 0.014
116. KKITKPKSQRLV  0.669 ± 0.014
117. ILCPSPAPTSFP  0.6682 ± 0.0061
118. IPSPYPPPAPLH  0.666 ± 0.011
119. KKKKKHKKPIES  0.666 ± 0.022
120. KKKKKIPKKAKR  0.666 ± 0.049
121. ILSPDRTHANET  0.665 ± 0.083
122. IQLQSNGLYSKK  0.665 ± 0.065
123. ISVPNPTRPDHP  0.665 ± 0.063
124. IYSPQIPTPPVL  0.664 ± 0.058
125. IQANLPLLTNQE  0.6631 ± 0.0017
126. KHDIEYRTQIKK  0.662 ± 0.033
127. IKKKTNYMNEKI  0.661 ± 0.0096
128. IFIVINGHFAGS  0.66 ± 0.06
129. IPSRALSCLLPC  0.66 ± 0.053
130. KEILTNNQKGQD  0.6602 ± 0.0036
131. IQPDVILLTRFV  0.6592 ± 0.0033
132. KKKKKPKKQNSG  0.6592 ± 0.0047
133. KKFRKGKKNKRK  0.657 ± 0.03
134. IKRKKKKKKKRD  0.6558 ± 0.0015
135. ISDRKARSDKNK  0.656 ± 0.071
136. KENNWTKKKKGK  0.655 ± 0.064
137. ITLSLGRQQIEL  0.654 ± 0.013
138. IKKQTKTKKKEF  0.65 ± 0.058
139. IRPSGVVPPRAG  0.65 ± 0.048
140. ILPFYAEGQLKF  0.649 ± 0.05
141. KKKIRKKKVRRK  0.649 ± 0.024
142. IPRERPAEHYGG  0.6473 ± 0.0018
143. IVLLNLTHVRSK  0.647 ± 0.024
144. IFRSLDFVFYFT  0.646 ± 0.097
145. KELNRRTNSPSE  0.644 ± 0.046
146. KKKKKKKNTKTK  0.644 ± 0.0076
147. ISVAHIPPVYHS  0.643 ± 0.038
148. IVGGDSVSALRG  0.643 ± 0.022
149. KKKKKKTKNEIK  0.643 ± 0.016
150. ILVAPAYYCWKV  0.642 ± 0.045
151. KCAIKKQEQTSR  0.642 ± 0.02
152. IPGHRHTKRIFG  0.641 ± 0.012
153. KERARNTKRGSD  0.641 ± 0.08
154. IRQITVTICRGR  0.639 ± 0.067
155. ISVSTDSPVRTW  0.639 ± 0.023
156. KKEISSTAGIIV  0.637 ± 0.073
157. KKKKKKKKKKKK  0.6364 ± 0.00086
158. ITSSPSSPPAPP  0.634 ± 0.0096
159. IAASCGPRYKDS  0.632 ± 0.077
160. IGKWIKKKKQKG  0.631 ± 0.023
161. IPSRGVQIPSWV  0.63 ± 0.03
162. ISVEELKSIKKK  0.6296 ± 0.0019
163. ITKTGAAEHASL  0.63 ± 0.037
164. IVFYWLAHRPCA  0.6297 ± 0.0059
165. KKIRGNSQLHPG  0.63 ± 0.015
166. INYSNQNKINRW  0.6294 ± 0.00076
167. KERLQLSVNLNI  0.628 ± 0.067
168. IGRRGINGLWGG  0.627 ± 0.042
169. KCSSEPMCKTCR  0.626 ± 0.053
170. KIIKNKIKKHNK  0.626 ± 0.018
171. ILCLPFSVSSPS  0.61579 ± 0.00015
172. IRRNRGLKWNVN  0.613 ± 0.068
173. IVLGGPAWPVAA  0.613 ± 0.034
174. IGIGVAGERLGV  0.612 ± 0.059
175. KKKKKQRNQKAK  0.612 ± 0.032
176. INLVKRQTVKPP  0.611 ± 0.076
177. IQLRPFLSSPCR  0.609 ± 0.035
178. KAGLSFSRQRGW  0.606 ± 0.058
179. IGFNVEIRKGMG  0.605 ± 0.082
180. IREQGQSLCKST  0.603 ± 0.029
181. KGICALKIATGK  0.603 ± 0.032
182. IWAEYIDAVLIN  0.6 ± 0.061
183. ISVSLWFRGRYY  0.599 ± 0.034
184. KKIEAKGMRNDS  0.599 ± 0.055
185. KGLSNGKNQIKM  0.597 ± 0.036
186. KEHTKKQERTPK  0.596 ± 0.051
187. IDVRRAIIPGLG  0.595 ± 0.011
188. IRPDLWYGLAVV  0.59 ± 0.023
189. IVRTDTKPYEQS  0.587 ± 0.013
190. IKKSRSLRIGMN  0.584 ± 0.04
191. KALGFHGGLHRF  0.5733 ± 0.0027
192. ILLSVAMNLRKH  0.571 ± 0.037
193. IVGLLGICVGRC  0.57 ± 0.024
194. IILVVLSRLYVI  0.5644 ± 0.003
195. IGWCRLRDRLVS  0.556 ± 0.048
196. IWLVRLSCARAF  0.5374 ± 0.0019
